Here are results for 32 molecules from article PMC6555819, “Comprehensive study of nuclear receptor DNA binding provides a revised framework for understanding receptor specificity”.

Numbering of substitutions follows the chain as printed.

First the molecules themselves.
B1: NRC3_wobSeed31_DR1_A15T_o1 (dsDNA)
DNA 1: GCTCATATAGGTAATAGGTGAAAGTCGGTGTGGTAAGCGATTGACAGCGTAGAATGAAGG
DNA 2: CCTTCATTCTACGCTGTCAATCGCTTACCACACCGACTTTCACCTATTACCTATATGAGC
B2: NRC3_wobSeed64_DR2_G18T_o1 (dsDNA)
DNA 1: GCTAGCCTAGGTCATTGTGCCAGTATAGTACGCATCGCGATTGACAGCGTAGAATGAAGG
DNA 2: CCTTCATTCTACGCTGTCAATCGCGATGCGTACTATACTGGCACAATGACCTAGGCTAGC
B3: NRC3_wobSeed141_DR5_G16C_o1 (dsDNA)
DNA 1: GCAGTCAAAGTTCAGCACGAGGTAACGTAAAGCACGGCGATTGACAGCGTAGAATGAAGG
DNA 2: CCTTCATTCTACGCTGTCAATCGCCGTGCTTTACGTTACCTCGTGCTGAACTTTGACTGC
B4: NRC3_wobSeed141_DR5_C26T_o1 (dsDNA)
DNA 1: B3 DNA 1 with C16G, C26T
DNA 2: B3 DNA 2 with G35A, G45C
B5: NRC3_wobSeed134_DR5_A30G_o1 (dsDNA)
DNA 1: GCGCTGCTAGGTCAACTGATGGTCAGCTAGAGCTCGGCGATTGACAGCGTAGAATGAAGG
DNA 2: CCTTCATTCTACGCTGTCAATCGCCGAGCTCTAGCTGACCATCAGTTGACCTAGCAGCGC
B6: NRC3_wobSeed47_DR1_A5T_o1 (dsDNA)
DNA 1: GCGGTACGAGGGCAAAGTTGATAGCATCTGTCGACGGCGATTGACAGCGTAGAATGAAGG
DNA 2: CCTTCATTCTACGCTGTCAATCGCCGTCGACAGATGCTATCAACTTTGCCCTCGTACCGC
B7: NRC3_wobSeed140_DR5_T15C_o1 (dsDNA)
DNA 1: GCAGAATGAGGTTACACGTAGATCAGGGAAGAAAGTGCGATTGACAGCGTAGAATGAAGG
DNA 2: CCTTCATTCTACGCTGTCAATCGCACTTTCTTCCCTGATCTACGTGTAACCTCATTCTGC
B8: NRC3_wobSeed116_DR4_A18G_o1 (dsDNA)
DNA 1: GCAGAATGAGGTTACCAGAGATCAGGGAAACGCTTGGCGATTGACAGCGTAGAATGAAGG
DNA 2: CCTTCATTCTACGCTGTCAATCGCCAAGCGTTTCCCTGATCTCTGGTAACCTCATTCTGC
B9: NRC3_wobSeed116_DR4_C15A_o1 (dsDNA)
DNA 1: B8 DNA 1 with C15A, G18A
DNA 2: B8 DNA 2 with C43T, G46T
B10: NRC3_wobSeed116_DR4_A6T_o1 (dsDNA)
DNA 1: B8 DNA 1 with A6T, G18A
DNA 2: B8 DNA 2 with C43T, T55A
B11: NRC3_wobSeed36_DR1_G9T_o1 (dsDNA)
DNA 1: GCCCGACTTGGGCAAAGGTTACCATACTCAGTACGAGCGATTGACAGCGTAGAATGAAGG
DNA 2: CCTTCATTCTACGCTGTCAATCGCTCGTACTGAGTATGGTAACCTTTGCCCAAGTCGGGC
B12: NRC3_wobSeed7_DR0_T6G_o1 (dsDNA)
DNA 1: GCTCAGATAGGTAAAGGTGAAAGTCGAACGATATGAGCGATTGACAGCGTAGAATGAAGG
DNA 2: CCTTCATTCTACGCTGTCAATCGCTCATATCGTTCGACTTTCACCTTTACCTATCTGAGC
B13: NRC3_wobSeed54_DR2_G15T_o1 (dsDNA)
DNA 1: GCTCTAGCAGGCCATAGGGTCACTCAAGAGGTACGGGCGATTGACAGCGTAGAATGAAGG
DNA 2: CCTTCATTCTACGCTGTCAATCGCCCGTACCTCTTGAGTGACCCTATGGCCTGCTAGAGC
B14: NRC3_wobSeed20_DR0_C19T_o1 (dsDNA)
DNA 1: GCAGAATGAGGTTAAGATTAGGGAAACAGAATACATGCGATTGACAGCGTAGAATGAAGG
DNA 2: CCTTCATTCTACGCTGTCAATCGCATGTATTCTGTTTCCCTAATCTTAACCTCATTCTGC
B15: NRC3_wobSeed69_DR2_C15G_o1 (dsDNA)
DNA 1: GCAGTCAAAGTTCAGTAGGTAACGTAAGATTCAGCTGCGATTGACAGCGTAGAATGAAGG
DNA 2: CCTTCATTCTACGCTGTCAATCGCAGCTGAATCTTACGTTACCTACTGAACTTTGACTGC
B16: NRC3_wobSeed124_DR5_C17G_o1 (dsDNA)
DNA 1: GCCCTACTGGGCCATTGAGAGGTCATTGATCATATGGCGATTGACAGCGTAGAATGAAGG
DNA 2: CCTTCATTCTACGCTGTCAATCGCCATATGATCAATGACCTCTCAATGGCCCAGTAGGGC
B17: NRC3_wobSeed43_DR1_G26C_o1 (dsDNA)
DNA 1: GCCCAGACAGGTGAAAGGTAACTCACTCTGGTACGCGCGATTGACAGCGTAGAATGAAGG
DNA 2: CCTTCATTCTACGCTGTCAATCGCGCGTACCAGAGTGAGTTACCTTTCACCTGTCTGGGC
B18: NRC3_wobSeed72_DR2_A22G_o1 (dsDNA)
DNA 1: GCTCGAGTAGGTTACGGGGGCGTTCAGGGATGAAGAGCGATTGACAGCGTAGAATGAAGG
DNA 2: CCTTCATTCTACGCTGTCAATCGCTCTTCATCCCTGAACGCCCCCGTAACCTACTCGAGC
B19: NRC3_wobSeed14_DR0_C22G_o1 (dsDNA)
DNA 1: GCCCTGCTAGGTCATGGTCAGGTAATCTACAGTATGGCGATTGACAGCGTAGAATGAAGG
DNA 2: CCTTCATTCTACGCTGTCAATCGCCATACTGTAGATTACCTGACCATGACCTAGCAGGGC
B20: NRC3_wobSeed14_DR0_T5C_o1 (dsDNA)
DNA 1: B19 DNA 1 with T5C, G22C
DNA 2: B19 DNA 2 with C39G, A56G
B21: NRC3_wobSeed136_DR5_A30G_o1 (dsDNA)
DNA 1: GCTAGCCTAGGTCATTCAGGGGCCAGTATGGAAAGCGCGATTGACAGCGTAGAATGAAGG
DNA 2: CCTTCATTCTACGCTGTCAATCGCGCTTTCCATACTGGCCCCTGAATGACCTAGGCTAGC
B22: NRC3_wobSeed136_DR5_C24T_o1 (dsDNA)
DNA 1: B21 DNA 1 with C24T, G30A
DNA 2: B21 DNA 2 with C31T, G37A
B23: NRC3_wobSeed98_DR4_A28T_o1 (dsDNA)
DNA 1: GCACTAGTTGGTCAGCTGAGGTCACACTCAATTCGGGCGATTGACAGCGTAGAATGAAGG
DNA 2: CCTTCATTCTACGCTGTCAATCGCCCGAATTGAGTGTGACCTCAGCTGACCAACTAGTGC
B24: NRC3_wobSeed38_DR1_o1 (dsDNA)
DNA 1: GCCCTGCTAGGTCAATGGTCAGCTAAAGCAGCTCGCGCGATTGACAGCGTAGAATGAAGG
DNA 2: CCTTCATTCTACGCTGTCAATCGCGCGAGCTGCTTTAGCTGACCATTGACCTAGCAGGGC
B25: NRC3_wobSeed75_DR3_G24A_o1 (dsDNA)
DNA 1: GCTCTCGGAGGACACGAAGGTCAAAGCTTTCCAGAGGCGATTGACAGCGTAGAATGAAGG
DNA 2: CCTTCATTCTACGCTGTCAATCGCCTCTGGAAAGCTTTGACCTTCGTGTCCTCCGAGAGC
B26: NRC3_wobSeed26_DR1_A21T_o1 (dsDNA)
DNA 1: GCTCTAGTTGGTCAAAGGTCTCACACTCGAAATGCGGCGATTGACAGCGTAGAATGAAGG
DNA 2: CCTTCATTCTACGCTGTCAATCGCCGCATTTCGAGTGTGAGACCTTTGACCAACTAGAGC
B27: NRC3_wobSeed26_DR1_T19C_o1 (dsDNA)
DNA 1: B26 DNA 1 with T19C, T21A
DNA 2: B26 DNA 2 with A40T, A42G
B28: NRC3_wobSeed137_DR5_A25T_o1 (dsDNA)
DNA 1: GCATATGTAGGTTACATCCGGGTCTTTCAGGCTATGGCGATTGACAGCGTAGAATGAAGG
DNA 2: CCTTCATTCTACGCTGTCAATCGCCATAGCCTGAAAGACCCGGATGTAACCTACATATGC
B29: NRC3_wobSeed137_DR5_A14C_o1 (dsDNA)
DNA 1: B28 DNA 1 with A14C, T25A
DNA 2: B28 DNA 2 with A36T, T47G
B30: NRC3_wobSeed102_DR4_A9C_o1 (dsDNA)
DNA 1: GCCCTAGCCGGCCAATCTGGGTCACTCAAGGCTTGAGCGATTGACAGCGTAGAATGAAGG
DNA 2: CCTTCATTCTACGCTGTCAATCGCTCAAGCCTTGAGTGACCCAGATTGGCCGGCTAGGGC
B31: NRC3_wobSeed110_DR4_T27G_o1 (dsDNA)
DNA 1: GCTCTGCTAGGTCAACGATGGTCAGCGAATCTGCTAGCGATTGACAGCGTAGAATGAAGG
DNA 2: CCTTCATTCTACGCTGTCAATCGCTAGCAGATTCGCTGACCATCGTTGACCTAGCAGAGC
B32: NRC3_wobSeed34_DR1_A9G_o1 (dsDNA)
DNA 1: GCATCGAAGGGTCGAAGGTGAGTATACCCACCCGAAGCGATTGACAGCGTAGAATGAAGG
DNA 2: CCTTCATTCTACGCTGTCAATCGCTTCGGGTGGGTATACTCACCTTCGACCCTTCGATGC

Sequence of PPARa:RXRa (Q07869 whole entry, chain 1 of 2): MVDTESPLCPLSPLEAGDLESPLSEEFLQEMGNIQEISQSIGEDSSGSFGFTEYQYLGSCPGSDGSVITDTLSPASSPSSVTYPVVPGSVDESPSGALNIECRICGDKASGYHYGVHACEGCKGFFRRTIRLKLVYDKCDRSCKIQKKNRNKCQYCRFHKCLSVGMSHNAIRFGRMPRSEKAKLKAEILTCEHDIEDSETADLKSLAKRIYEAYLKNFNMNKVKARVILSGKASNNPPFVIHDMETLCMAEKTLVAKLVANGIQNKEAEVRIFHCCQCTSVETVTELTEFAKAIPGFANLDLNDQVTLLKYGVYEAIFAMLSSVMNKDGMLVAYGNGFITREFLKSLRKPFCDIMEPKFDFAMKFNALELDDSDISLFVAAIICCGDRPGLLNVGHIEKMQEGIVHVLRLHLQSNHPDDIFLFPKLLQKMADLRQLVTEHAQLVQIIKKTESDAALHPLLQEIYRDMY
Sequence of PPARa:RXRa (P19793 whole entry, chain 2 of 2): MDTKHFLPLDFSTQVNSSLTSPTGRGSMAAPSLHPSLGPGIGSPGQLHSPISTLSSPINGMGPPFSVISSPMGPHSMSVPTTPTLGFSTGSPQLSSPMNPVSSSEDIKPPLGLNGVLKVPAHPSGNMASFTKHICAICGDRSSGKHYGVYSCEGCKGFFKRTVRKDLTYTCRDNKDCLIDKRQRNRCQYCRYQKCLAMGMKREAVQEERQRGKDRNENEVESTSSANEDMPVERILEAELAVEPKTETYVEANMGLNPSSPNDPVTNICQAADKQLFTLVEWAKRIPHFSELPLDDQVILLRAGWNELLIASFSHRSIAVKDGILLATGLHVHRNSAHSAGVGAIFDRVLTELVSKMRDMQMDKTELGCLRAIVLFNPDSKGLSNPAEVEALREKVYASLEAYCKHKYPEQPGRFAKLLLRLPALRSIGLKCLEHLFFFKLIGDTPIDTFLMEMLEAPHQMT

The series has as its target PPARa:RXRa (Homo sapiens, UniProt Q07869;P19793 full;full). Kind of series: no ligand; PBM; 270 nM : 90 nM RXRa; PBS pH 7.4, 2% milk, 0.02% Triton X-100, 1 mM DTT, BSA, 0.4 mg/ml salmon testes DNA. Conditions: tags: GST kept;His cleaved; copies: 1;1; label: surface-attached array probe. The method in brief:
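The probes on custom Agilent 4×180K protein-binding microarrays were double-stranded, with 34-nt variable regions bearing direct-repeat seeds, single-nucleotide variants, half-site ablations and random human genomic background sequences. Incubation lasted 1 h with ligand-free nuclear receptor dimers in PBS pH 7.4, 2% milk, 0.02% Triton X-100, 1 mM DTT, 0.2 mg/mL BSA and 0.4 mg/ml salmon testes DNA. Antibodies against each partner (one per run) detected bound dimers, and fluorescence scans were regression-normalized. Binding z-scores take the random background probes as reference.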
On to B1, for which the binding signal was 3.69 PBM z-score against 500 random probes.
The same measure for B2: 3.37 PBM z-score against 500 random probes; for B3: 3.7 PBM z-score against 500 random probes.
Take B4: the binding signal is 3.3 PBM z-score against 500 random probes.
The same measure for B5: 3.59 PBM z-score against 500 random probes; for B6: 3.22 PBM z-score against 500 random probes; for B7: 3.5 PBM z-score against 500 random probes.
The same measure for B8: 3.63 PBM z-score against 500 random probes.
The figure for B9 is 3.61 PBM z-score against 500 random probes.
Regarding B10, the binding signal was 3.29 PBM z-score against 500 random probes.
The same measure for B11: 3.64 PBM z-score against 500 random probes; for B12: 3.2 PBM z-score against 500 random probes.
The figure for B13 is 3.24 PBM z-score against 500 random probes; for B14 it is 3.39 PBM z-score against 500 random probes.
The figure for B15 is 3.56 PBM z-score against 500 random probes.
Take B16: the binding signal was 3.57 PBM z-score against 500 random probes.
The figure for B17 is 3.54 PBM z-score against 500 random probes; for B18 it is 3.48 PBM z-score against 500 random probes; for B19 it is 3.51 PBM z-score against 500 random probes.
The same measure for B20: 3.35 PBM z-score against 500 random probes.
The figure for B21 is 3.67 PBM z-score against 500 random probes.
Turning to B22, the binding signal was 3.65 PBM z-score against 500 random probes.
The figure for B23 is 3.53 PBM z-score against 500 random probes; for B24 it is 3.19 PBM z-score against 500 random probes.
The figure for B25 is 3.46 PBM z-score against 500 random probes.
The figure for B26 is 3.41 PBM z-score against 500 random probes.
On to B27, for which the binding signal was 3.15 PBM z-score against 500 random probes.
The same measure for B28: 3.32 PBM z-score against 500 random probes.
The same measure for B29: 3.09 PBM z-score against 500 random probes; for B30: 3.14 PBM z-score against 500 random probes; for B31: 3.11 PBM z-score against 500 random probes.
With B32, the binding signal is 3.17 PBM z-score against 500 random probes.
